Results from patent publication US20030224453A1, “Structural models for cytoplasmic domains of transmembrane receptors” (priority 1998, published 2003).
Blank lines part the entries; values can stand above or below the molecule they belong to. Ends that are not written are not given here.

Tests used:
platelet αIIbβ3 = assay: ELISA: inhibition by competitor of anti-mimic antibody reactivity with native platelet αIIbβ3; format: binding, human; details: antibody raised against FIG. 2 heterodimeric mimic; result in words
Description: Antibodies against these heteromeric complexes of the present invention that recognize combinatorial epitopes of the cytoplasmic domains of the complex can be produced in accordance with well known techniques. For example, antibodies were prepared against the heterodimeric complex of FIG. 2. […] Thus, this antibody recognized combinatorial epitopes in the cytoplasmic domain of the native receptor that were mimicked in the model protein.
Antibodies to the model protein depicted in FIG. 2 were raised in 2.5 kg New Zealand white rabbits. One hundred microliters of a water solution containing 1 mg/ml of the model protein was emulsified in 1 ml incomplete Freund's adjuvant and administered subcutaneously to each New Zealand white rabbit. Two additional injections at 2-week intervals were followed by bleeding (approximately 50 mls) at monthly intervals until the rabbits were sacrificed. Blood was permitted to clot at room temperature, and the serum was recovered by centrifugation. Serum was heat inactivated at 56° C. for 30 minutes and stored at −20° C. A pre-immune serum, obtained prior to immunization, was used as a control.
αIIbβ3 was purified by gel filtration in accordance with procedures described by Du et al. (Cell 65:409-416 (1991)) with omission of the heparin and Con A affinity chromatography steps. […] To quantify bound antibody, 50 μl of horseradish peroxidase-conjugated goat anti-rabbit IgG (Biorad) was diluted to a concentration of 1/1000 in wash buffer containing 1 mg/ml bovine serum albumin. […] After four washes, bound antibody was assayed by measuring peroxidase activity with O-phenylenediamine as a substrate and quantifying reaction product by its optical density at 490 nm. Data were expressed as B/B0 where B=A490 in the presence of competitor and B0=A490 in its absence. In some experiments, varying concentrations of αIIb peptides were added to a fixed, saturating, quantity of β3 peptide (20-50 nM). Competition was again expressed as B/BO, however, B0 was the A490 in the presence of the β3 peptide and no added αIIb peptide. […]

[1] = molecular target: T1, integrin β3 cytoplasmic domain (Homo sapiens, UniProt P05106); assay: Immunochemical ELISA: αIIb peptides added to fixed saturating β3 peptide, competition for anti-model protein antibody binding to coated αIIbβ3 (EC50 determination); details: for EC50: dose of αIIb peptide resulting in B/B0=0.5 with fixed saturating β3 peptide (20-50 nM)
T1 sequence (P05106 742-788 limits assumed): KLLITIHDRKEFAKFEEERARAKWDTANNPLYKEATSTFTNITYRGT
Source text: Antibodies raised against a mimic of the present invention were used in an immunochemical assay to identify compounds that bind to the 3 cytoplasmic domain and induce a conformation change. In this assay, the binding of the αIIb and β3 cytoplasmic tails was first analyzed. […] Furthermore, as shown in this Table, point mutations or deletions that disrupted this heptapeptide sequence in the αIIb cytoplasmic domain also disrupted interaction with β3.
αIIbβ3 was purified by gel filtration in accordance with procedures described by Du et al. (Cell 65:409-416 (1991)) with omission of the heparin and Con A affinity chromatography steps. The final product was greater than 95% homogenous as judged by SDS PAGE. In the enzyme-linked immunosorbent assay (ELISA) the αIIbβ3 was used at a concentration of 5 μg/ml in a coating buffer containing 0.1 M NaHCO3 and 0.05% NaN3. Fifty ul/well was used to coat IMMULON II microtiter wells at 4° C. overnight. After removal of the coating solution, 150 Al blocking buffer (coating buffer containing 5% bovine serum albumin) was added. After an additional one hour incubation at 4° C., the blocking buffer was removed and the plates were washed three times with wash buffer (0.01 M Tris, 0.15 M NaCl, 0.01% thimerisol, 0.05% Tween 20, pH 8.0). Twenty-five microliters of the competitor was added to each well followed by 25 μl of a dilution of the anti-model protein antibody. Following mixing, the plate was covered for one hour at 37° C. and washed four times with wash buffer. To quantify bound antibody, 50 μl of horseradish peroxidase-conjugated goat anti-rabbit IgG (Biorad) was diluted to a concentration of 1/1000 in wash buffer containing 1 mg/ml bovine serum albumin. These plates were then incubated at 37° C. for 1.5 hours. After four washes, bound antibody was assayed by measuring peroxidase activity with O-phenylenediamine as a substrate and quantifying reaction product by its optical density at 490 nm. Data were expressed as B/B0 where B=A490 in the presence of competitor and B0=A490 in its absence. In some experiments, varying concentrations of αIIb peptides were added to a fixed, saturating, quantity of β3 peptide (20-50 nM). Competition was again expressed as B/BO, however, B0 was the A490 in the presence of the β3 peptide and no added αIIb peptide. EC50 was defined as the dose of αIIb resulting in B/B0=0.5.

talin = talin (Homo sapiens, UniProt Q9Y490); assay: Affinity chromatography of cell lysates on cytoplasmic domain mimics, talin detected; format: binding; set-up: endogenous in cells; host or cells: human platelets (also Jurkat, HT1080, mouse C2C12 myotubes); details: NHS-biotin-labeled human platelet lysates; result in words
Chain of talin (Q9Y490 whole entry, the tested form may be a part): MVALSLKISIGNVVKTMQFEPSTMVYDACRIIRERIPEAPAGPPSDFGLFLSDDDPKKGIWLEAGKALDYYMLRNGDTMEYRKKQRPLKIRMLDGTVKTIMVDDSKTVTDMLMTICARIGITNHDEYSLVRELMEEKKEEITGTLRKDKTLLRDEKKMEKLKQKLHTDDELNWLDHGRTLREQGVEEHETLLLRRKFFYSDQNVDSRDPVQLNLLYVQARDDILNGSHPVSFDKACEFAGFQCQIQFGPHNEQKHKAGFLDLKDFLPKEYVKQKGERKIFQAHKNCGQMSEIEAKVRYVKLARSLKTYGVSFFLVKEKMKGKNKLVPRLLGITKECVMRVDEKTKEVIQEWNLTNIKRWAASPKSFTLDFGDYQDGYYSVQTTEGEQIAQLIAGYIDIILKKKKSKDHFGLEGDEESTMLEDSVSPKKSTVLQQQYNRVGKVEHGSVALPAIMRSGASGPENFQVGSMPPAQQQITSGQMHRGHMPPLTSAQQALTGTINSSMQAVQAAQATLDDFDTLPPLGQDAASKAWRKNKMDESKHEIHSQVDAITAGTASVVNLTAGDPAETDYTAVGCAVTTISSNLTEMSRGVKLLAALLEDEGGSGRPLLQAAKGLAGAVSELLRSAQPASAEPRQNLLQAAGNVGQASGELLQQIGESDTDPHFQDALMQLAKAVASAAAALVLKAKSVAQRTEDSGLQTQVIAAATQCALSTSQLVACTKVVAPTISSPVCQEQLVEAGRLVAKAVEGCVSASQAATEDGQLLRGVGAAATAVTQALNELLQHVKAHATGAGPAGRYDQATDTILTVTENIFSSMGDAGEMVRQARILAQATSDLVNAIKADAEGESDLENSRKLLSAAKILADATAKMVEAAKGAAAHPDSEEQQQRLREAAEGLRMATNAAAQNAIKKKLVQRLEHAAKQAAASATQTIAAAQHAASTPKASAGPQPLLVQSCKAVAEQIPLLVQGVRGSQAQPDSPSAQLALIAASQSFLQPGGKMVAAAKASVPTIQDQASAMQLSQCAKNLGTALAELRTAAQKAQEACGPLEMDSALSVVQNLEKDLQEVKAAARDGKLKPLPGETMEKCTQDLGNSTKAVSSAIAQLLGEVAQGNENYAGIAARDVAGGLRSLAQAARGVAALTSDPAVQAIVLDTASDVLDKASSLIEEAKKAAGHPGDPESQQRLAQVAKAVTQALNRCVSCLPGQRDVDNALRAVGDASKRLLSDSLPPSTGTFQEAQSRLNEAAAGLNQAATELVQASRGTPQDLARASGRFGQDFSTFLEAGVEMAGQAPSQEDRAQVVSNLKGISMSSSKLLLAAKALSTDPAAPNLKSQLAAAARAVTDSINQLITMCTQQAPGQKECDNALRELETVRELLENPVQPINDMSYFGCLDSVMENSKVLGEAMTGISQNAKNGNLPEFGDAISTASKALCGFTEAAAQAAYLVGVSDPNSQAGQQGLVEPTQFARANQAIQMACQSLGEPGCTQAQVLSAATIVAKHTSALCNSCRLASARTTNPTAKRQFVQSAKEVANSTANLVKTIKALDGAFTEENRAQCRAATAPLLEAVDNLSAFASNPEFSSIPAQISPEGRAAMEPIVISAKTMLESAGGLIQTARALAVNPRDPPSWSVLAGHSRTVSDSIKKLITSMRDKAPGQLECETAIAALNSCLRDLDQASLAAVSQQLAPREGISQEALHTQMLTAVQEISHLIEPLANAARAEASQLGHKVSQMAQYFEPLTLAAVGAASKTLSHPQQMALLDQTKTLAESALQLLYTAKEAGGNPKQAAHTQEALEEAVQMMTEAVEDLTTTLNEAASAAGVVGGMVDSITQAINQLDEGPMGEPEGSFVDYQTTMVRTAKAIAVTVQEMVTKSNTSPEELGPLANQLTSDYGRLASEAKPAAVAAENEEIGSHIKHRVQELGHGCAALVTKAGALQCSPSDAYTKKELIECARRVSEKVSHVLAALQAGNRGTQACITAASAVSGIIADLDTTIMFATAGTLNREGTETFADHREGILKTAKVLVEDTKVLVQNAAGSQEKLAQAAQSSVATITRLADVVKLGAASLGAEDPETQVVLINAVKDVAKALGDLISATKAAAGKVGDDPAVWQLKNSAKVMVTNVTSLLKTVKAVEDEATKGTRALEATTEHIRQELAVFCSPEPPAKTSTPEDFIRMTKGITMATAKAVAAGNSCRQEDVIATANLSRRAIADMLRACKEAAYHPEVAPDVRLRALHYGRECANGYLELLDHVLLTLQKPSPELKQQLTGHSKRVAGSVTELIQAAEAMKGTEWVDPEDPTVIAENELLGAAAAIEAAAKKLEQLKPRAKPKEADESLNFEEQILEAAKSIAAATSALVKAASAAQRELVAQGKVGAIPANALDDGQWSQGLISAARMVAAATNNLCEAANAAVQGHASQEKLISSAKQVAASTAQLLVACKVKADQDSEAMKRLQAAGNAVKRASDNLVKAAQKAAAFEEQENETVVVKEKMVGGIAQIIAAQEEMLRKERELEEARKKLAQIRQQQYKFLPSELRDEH
Source text: To study possible influences of the structural changes induced by the Gly insertions, protein models were produced having the β1A cytoplasmic domain with one, two and three additional Gly residues inserted after the heptad-repeat motif (G2-, G3-, G4-β1A) and compared with the G1-β1A construct. As an additional control, a variant of the G4-β1A peptide was produced with a Tyr to Ala substitution in the membrane-proximal NPXY-motif (G4-β1A-Y788A) (FIG. 1). This mutation interferes with focal adhesion targeting and activation of integrins. The purified proteins were bound via their N=terminal His-Tag to a Ni^2+−resin and used in affinity chromatography experiments with lysates of NHS-biotin-labeled human platelets. Marked changes in the pattern of protein binding were observed as a consequence of the Gly insertions. Polypeptides migrating at 45, 56, 58, 140 and 240 kDa bound only to the mimics with Gly insertions. […] Using monoclonal antibodies, the 240 kDa and 45 kDa proteins were identified as filamin and actin, respectively. […] Talin bound to the G1- and G4-β1A construct but not to the Y788A-G4β1A construct. Thus, the structural changes in the model induced by the insertion of glycines into the coiled-coil motif and the integrin cytoplasmic domain sequence alter interactions of these proteins with cellular components. Alterations of the β1A tail that block cytoskeletal interactions, such as the Y788 mutation and β1B- and β1C-splice variants also abrogate binding to talin and filamin. Consequently, the observed in vitro interactions are likely to be biologically relevant.
Human platelets were obtained by centrifugation of freshly drawn blood samples at 1000 rpm for 20 minutes and sedimentation of the resulting platelet-rich plasma at 2600 rpm for 15 minutes. They were washed twice with 0.12 M NaCl, 0.0129 M trisodium citrate, 0.03 M glucose, pH 6.5, and once in Hepes-Saline (3.8 mM Hepes, 137 mM NaCl, 2.7 mM KCl, 5.6 mM D-Glucose, 3.3 mM Na2HPO4, pH 7.3-7.4). […]

[2] = molecular target: T2, Full-length β3 peptide (β3 cytoplasmic tail) (UniProt P05106 742-788, limits assumed); assay: αIIb peptide titrated with fixed saturating β3 peptide; inhibition of antibody binding to coated αIIbβ3 (ELISA), EC50 at B/B0=0.5
T2 construct: domain: cytoplasmic domain; also called wild-type β3
T2 peptide (looked up): T1 sequence (P05106 742-788 limits assumed)
Description: (§1) In the enzyme-linked immunosorbent assay (ELISA) the αIIbβ3 was used at a concentration of 5 μg/ml in a coating buffer containing 0.1 M NaHCO₃ and 0.05% NaN₃. Fifty ul/well was used to coat IMMULON II microtiter wells at 4° C. overnight. After removal of the coating solution, 150 Al blocking buffer (coating buffer containing 5% bovine serum albumin) was added. After an additional one hour incubation at 4° C., the blocking buffer was removed and the plates were washed three times with wash buffer (0.01 M Tris, 0.15 M NaCl, 0.01% thimerisol, 0.05% Tween 20, pH 8.0). […] Following mixing, the plate was covered for one hour at 37° C. and washed four times with wash buffer. To quantify bound antibody, 50 μl of horseradish peroxidase-conjugated goat anti-rabbit IgG (Biorad) was diluted to a concentration of 1/1000 in wash buffer containing 1 mg/ml bovine serum albumin. These plates were then incubated at 37° C. for 1.5 hours. After four washes, bound antibody was assayed by measuring peroxidase activity with O-phenylenediamine as a substrate and quantifying reaction product by its optical density at 490 nm. Data were expressed as B/B0 where B=A₄₉₀ in the presence of competitor and B0=A₄₉₀ in its absence.

[3] = molecular target: T2, Full-length β3 peptide (β3 cytoplasmic …); assay: competitive ELISA with β3 peptide and anti-model protein antibody on coated αIIbβ3
Description: as §1

Molecule: full-length αIIb peptide: full-length linear peptide of the αIIb cytoplasmic domain (KVGFFKRNRPPLEEDDEEGE)
inhibition of antibody reactivity with platelet αIIbβ3 (platelet αIIbβ3): not inhibited
interaction with β3 cytoplasmic tail (induces conformation change seen by antibody) ([1]; result in words): apparent affinity of the interaction was high

EC50 [1]: > 1000 nM
Molecule: PPLEED [PPLEED]

EC50 [1]: > 1000 nM
Molecule: KVGFFKRNRPPLEE

EC50 [1]: > 1000 nM
Molecule: PLEEDDEEGQ

EC50 [1]: > 1000 nM
Molecule: KVGFFPLEEAAEEGQ

EC50 [1]: > 1000 nM
Molecule: KVGFFKRNRPPLEEAAEEGQ

Molecule: β3 (Y747A) mutant: mutant of the β3 cytoplasmic domain, Y747A (KLLITIHDRKEFAKFEEERARAKWDTANNPLAKEATSTFTNITYRGT)
inhibition of antibody reactivity with platelet αIIbβ3 (platelet αIIbβ3): completely inhibited

Molecule: full-length β3 peptide: full-length linear peptide of the β3 cytoplasmic domain (KLLITIHDRKEFAKFEEERARAKWDTANNPLYKEATSTFTNITYRGT)
inhibition of antibody reactivity with platelet αIIbβ3 (platelet αIIbβ3): only partially inhibited

talin binding from cell lysates (talin): bound
B1: G4-β1A: β1A construct with three additional glycines between heptad repeats and cytoplasmic domain (protein)
chain: GSSHHHHHHSSGLVPRGSHMKLEALEGRLDALEGKLEALEGKLDALEGGGGKLLMIIHDRREFAKFEKEKMNAKWDTGENPIYKSAVTTVVNPKYEGK

EC50 [2]: 6 nM
Molecule: KRNRPPLEEDDEEGQ [αIIb peptide KRNRPPLEEDDEEGQ]

EC50 [2]: 30 nM
Molecule: RPPLEED [αIIb heptapeptide RPPLEED]

talin binding from cell lysates (talin): bound
B2: G1-β1A: His-tag, four heptad repeats, one glycine, β1A integrin cytoplasmic domain (protein)
chain: GSSHHHHHHSSGLVPRGSHMCGKLEALEGRLDALEGKLEALEGKLDALEGKLLMIIHDRREFAKFEKEKMNAKWDTGENPIYKSAVTTVVNPKYEGK

EC50 [2]: 3 nM
Molecule: KVGFFKRNRPPLEEDDEEGQ [αIIb peptide KVGFFKRNRPPLEEDDEEGQ]

binding result [3]: no binding
Molecule: KLGFFKRSLPYGTAMEKAQLKPPATSDA (peptide, UniProt P08648 1022-1049, looked up, domain: cytoplasmic domain) [Cytoplasmic domain of integrin α5]

EC50 [2]: 8 nM
Molecule: NRPPLEEDDEEGQ [αIIb peptide NRPPLEEDDEEGQ]

EC50 [2]: 5 nM
Molecule: KVGFFKRNRPPLEEDD [αIIb peptide KVGFFKRNRPPLEEDD]

binding result [3]: no binding
Molecule: KAGFFKRQYKSILQEENRRDSWSYINSKSNDD (peptide, UniProt P13612 1001-1032, looked up, domain: cytoplasmic domain) [Cytoplasmic domain of integrin α4]

EC50 [2]: 20 nM
Molecule: NRPPLEEDD [αIIb peptide NRPPLEEDD]
